Source: patent publication US20170088605A1 (Novartis, published 2017)
Where a chain is given by its changes, count along the chain named. Read-outs that look alike come from different tables or passages of the source.

T1: BKV serotype I infectious virus (VP1) (BK virus serotype I, UniProt P03088 1-362)
T1 sequence (looked up): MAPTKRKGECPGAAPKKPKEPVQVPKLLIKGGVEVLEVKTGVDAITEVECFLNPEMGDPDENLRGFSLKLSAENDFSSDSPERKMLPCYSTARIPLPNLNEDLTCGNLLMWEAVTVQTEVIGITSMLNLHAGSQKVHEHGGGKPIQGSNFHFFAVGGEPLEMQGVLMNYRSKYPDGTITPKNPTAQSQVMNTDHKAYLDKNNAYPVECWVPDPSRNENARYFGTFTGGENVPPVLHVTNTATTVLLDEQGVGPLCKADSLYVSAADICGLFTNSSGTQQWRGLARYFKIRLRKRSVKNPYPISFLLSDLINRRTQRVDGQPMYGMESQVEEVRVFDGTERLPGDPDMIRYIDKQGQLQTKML

B1: 2081-38-5 (antibody, V domains shown)
VH: QVQLQQSGPELVKPGASVKISCKASGYTFSSSWINWVKQRPGQGLEWIGRIYPGDGDTNYNGKFKGKATLTADKSSSTVDMHLSSLTYVDSAVYFCAIHSSGFPHWGQGTLVTVSA
VL: DIQMTQTTSSLSASLGGRVTISCRTSQDISDYLNWYQQKPDGAVKLLIYYTSRLHSGVPSRFSGSGSGTDYSLTISNLEQEDIATYFCQQTNTLPFTFGGGTKLEIK
B2: 2075-16-1 (antibody, V domains shown)
VH: QVQLQQPGSELVRPGASVKLSCKASGYTFTNYWMHWVKQGHGQGLEWIGNIYPGSGNTNYGENFKSKGTLTVDTSSSTAYMHLSRLTSEDSAVYYCSRSAIYYGYDGHYFAMDYWGQGTSVTVSS
VL: DIQMTQSPSSLSASLGGKVTITCKASQDIRKYIAWYQHKPGKGPRLLINYTSTLQSGIPSRFRGSGSGRDYSFSISNLEPEDIATYYCLQYDNILFTFGTGTKLEIK
B3: NEG447 (antibody, human IgG1, lambda, V domains shown)
VH: QVQLQESGPGLVKPSETLSLTCTVSGGSISRDYWSWVRQPPGAGLEWIGNIYYSGSTNYNPSLKSRVTISVATNKKQFSLKLTSVTAADTAVYYCARVPGCSSTSCIDGWFDPWGQGILVTVSS
VL: QSVLTQPPSLSAAPGQKVTISCSGSSSNIGNTYVSWYQQLPGTAPKLLIYDNNKRPSGIPDRFSGSKSGTSATLGITGLQTGDEAVYYCGTWDSSLSAWVFGGGTRLTVLG
B4: P165E2 (antibody, human IgG1, lambda, V domains shown)
VH: B3 VH with S35T, A43E, T73A, N74S
VL: B3 VL with K17R, D61G, V86A
B5: P7G11A (antibody, human IgG1, lambda, V domains shown)
VH: QVQLQESGPGLVKPSQTLSLTCTVSGGSISSGGYSWSWIRQPPGKGLEYIGYIYYRGTTYYNPSLKSRVTISVDTSNNQISLKLSSVTAADTAVYYCARALTHLVGVGWFDPWGQGTMVTVSS
VL: B3 VL with L10V, S25G, I29L, N31S, T32N, V86D, S94G, R106K, L107V
B6: P7G11 (antibody, human IgG1, lambda, V domains shown)
VH: B5 VH with V12A, T23S, V69I, I71M, S85T
VL: B3 VL with L10V, S25G, I29L, N31S, T32N, V86D, S94G, R106K, L107V
B7: 2075-456-4 (antibody, V domains shown)
VH: QVHLQQSGPELVKPGASVTISCKTSGYSFSSCWMNWVKQRPGQGLEWIGRIYPGDGDTKYTEKFKDKATLTADKSSSTAYMQLSSLTSVDSALYFCAISGSGLPYWGQGTLVTVSE
VL: DIQMTQTTSSLSASLGDRVTISCRASQDIHNYLNWYQQKPDGTIKLLIYSTSRLHSGVPSRFSGSGSGTHYSLTINNLEQEDIATYFCQQTHTLPLTFGAGTKLELK
B8: 2081-66-5 (antibody, V domains shown)
VH: QVQLQQSGPELVKPGASVRISCKVSGFTFSNSWMNWVKQRPGQGLEWIGRIYPGDGDTQYNEKFKGKATLTADTSSNTAYIQLNSLTSVDSAVFFCARSRSGLDYWGQGTTLTVSS
VL: DIQMTQSTSSLSASLGDRVTISCRASQDIYNYLNWFQQKPDGTVKPLIYSTSRLHSGVSSRFSGSGSGTDYSLTISNLEREDIATYFCHQSHTVPFTFGSGTKLEIK
B9: 2081-25-6 (antibody, V domains shown)
VH: QVQLQQSGAELVRPGSSVKISCKASGYAFSRYWMNWVKQRPGQGLEWIGQIYPGDGDTKYNGKFKDTATLTADKSSSTAYLQLSSLTSEDSAVYFCAKYGNYGMDYWGQGTSVTVSS
VL: DAVMTQTPLSLPVSLGDQASISCRSSQSLEYGNGNTYLNWYLQKPGQSPQLLIYRVSNRFSGVLDRFSGSGSGTDFTLKISRVEAEDLGVYFCLQFTHVPYTFGGGTKLEIK
B10: EBB-C1975-B5 (antibody, human IgG1, kappa, V domains shown)
VH: QVQLVQSGPGLVKPSETLSLTCTVSGGSTSAYYWTWIRQPPGKGLEWIGYISHSGSTNYNPSLKSRVTISADTSKNQLSLKVNSVTAADTAVYYCARLGDTASLSRFYYYIDVWGKGTTVTVSS
VL: EIVMTQSPDTLSLSPGERATLSCRASQSVSSNYLAWYQQKPGEAPRLLIYGASSRATGIPDRFSGSGSGTDFTLTISRLEPEDFAVYYCQQYGSSPPYTFGQGTRLEIKR
B11: EBB-C1975-A3 (antibody, V domains shown)
VH: EVQLVETGGGLVQPGGSLRLSCAASGFTVRRNYMSWVRQAPGKGLEWVSGIYSGGSTYYADSVKGRFTISRDYSKNTLSLQMNTLRVEDTAVYFCAREDEFWSGYSAGVDWGQGTLVTVSS
VL: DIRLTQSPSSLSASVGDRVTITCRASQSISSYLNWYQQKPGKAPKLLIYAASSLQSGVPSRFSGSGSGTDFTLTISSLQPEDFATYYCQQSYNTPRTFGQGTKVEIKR
B12: EBB-C1975-E7 (antibody, human IgG1, kappa, V domains shown)
VH: B11 VH with V5L, T7S, Q13R, L20V, R30S, S53G, S56R, D61E, S79F, V92L
VL: DIQVTQSPSSLSASVGDRVTITCRASQSISSYLNWYQQEPGKAPKLLIYAASTLQTGVPSRFSGSGSGTDFTLTISSLQPEDFATYYCQQSYNTPRTFGQGTKVEIKR

Legend:
Assay in all cases: cell-based or functional assay
[1] = molecular target: T1, BKV serotype I infectious virus (VP1)
[2] = molecular target: T2, BKV serotype IV chimeric infectious virus (VP1 of strain ITA-4) (BK virus serotype IV)
[3] = molecular target: T3, BKV serotype III chimeric infectious virus (VP1 of isolate AS) (BK virus serotype III)
[4] = molecular target: T4, BKV serotype II chimeric infectious virus (VP1 of isolate SB) (BK virus serotype II)
[5] = molecular target: JCV infectious virus, isolates Mad-1 and Mad-4 (VP1) (JC virus)
[6] = molecular target: T1, BKV serotype I infectious virus (VP1); remark: listed apart in the source
[7] = molecular target: T2, BKV serotype IV chimeric infectious …; remark: listed apart in the source
[8] = molecular target: T3, BKV serotype III chimeric infectious …; remark: listed apart in the source
[9] = molecular target: T4, BKV serotype II chimeric infectious …; remark: listed apart in the source
[10] = molecular target: T1, BKV serotype I infectious virus (VP1); remark: listed apart in the source

Row | Binder | neutralization EC50 [1] | neutralization EC90 [1] | neutralization EC50 [2] | neutralization EC90 [2] | neutralization EC50 [3] | neutralization EC90 [3] | neutralization EC50 [4] | neutralization EC90 [4] | neutralization EC50 [5] | neutralization EC90 [5] | neutralization EC50 [6] | neutralization EC90 [6] | other results
1 | B1 | 0.053 µg/mL | 1.8 µg/mL | – | – | – | – | – | – | – | – | – | – | –
2 | B2 | 0.065 µg/mL | 1.25 µg/mL | – | – | – | – | – | – | – | – | – | – | –
3 | B3 | – | – | 0.012 µg/mL | 0.34 µg/mL | > 100 µg/mL | > 100 µg/mL | 0.024 µg/mL | 6.72 µg/mL | > 100 µg/mL | > 100 µg/mL | 4 ng/mL | 0.27 µg/mL | –
4 | B4 | – | – | 0.012 µg/mL | 0.46 µg/mL | > 100 µg/mL | > 100 µg/mL | 0.081 µg/mL | 7.98 µg/mL | > 100 µg/mL | > 100 µg/mL | 9 ng/mL | 0.37 µg/mL | –
5 | B5 | – | – | 0.015 µg/mL | 0.53 µg/mL | > 100 µg/mL | > 100 µg/mL | 0.074 µg/mL | 2.89 µg/mL | > 100 µg/mL | > 100 µg/mL | 0.8 ng/mL | 0.34 µg/mL | –
6 | B6 | – | – | 0.011 µg/mL | 0.48 µg/mL | > 100 µg/mL | > 100 µg/mL | 0.187 µg/mL | 1.79 µg/mL | > 100 µg/mL | > 100 µg/mL | 7 ng/mL | 0.37 µg/mL | –
7 | B7 | 0.092 µg/mL | 0.503 µg/mL | – | – | – | – | – | – | – | – | – | – | –
8 | B8 | 0.041 µg/mL | 0.601 µg/mL | – | – | – | – | – | – | – | – | – | – | –
9 | B9 | 0.213 µg/mL | 0.723 µg/mL | – | – | – | – | – | – | – | – | – | – | –
10 | B10 | – | – | – | – | – | – | – | – | – | – | – | – | neutralization EC50 [7]: 0.15 µg/mL; neutralization EC90 [7]: 7.83 µg/mL; neutralization EC50 [8]: 0.76 µg/mL; neutralization EC90 [8]: > 100 µg/mL; neutralization EC50 [9]: 0.42 µg/mL; neutralization EC90 [9]: 24.2 µg/mL; neutralization EC50 [10]: 0.033 µg/mL; neutralization EC90 [10]: 5.53 µg/mL
11 | B11 | – | – | – | – | – | – | – | – | – | – | – | – | neutralization EC50 [7]: 0.13 µg/mL; neutralization EC90 [7]: 8.18 µg/mL; neutralization EC50 [8]: > 100 µg/mL; neutralization EC90 [8]: > 100 µg/mL; neutralization EC50 [9]: 0.12 µg/mL; neutralization EC90 [9]: 25.2 µg/mL; neutralization EC50 [10]: 0.045 µg/mL; neutralization EC90 [10]: 4.84 µg/mL
12 | B12 | – | – | – | – | – | – | – | – | – | – | – | – | neutralization EC50 [7]: 0.35 µg/mL; neutralization EC90 [7]: 8.61 µg/mL; neutralization EC50 [8]: > 100 µg/mL; neutralization EC90 [8]: > 100 µg/mL; neutralization EC50 [9]: 0.33 µg/mL; neutralization EC90 [9]: 9.61 µg/mL; neutralization EC50 [10]: 0.01 µg/mL; neutralization EC90 [10]: 2.62 µg/mL
